Key:
[1] = system: 4T1 cells; test: 4T1 orthotopic tumor induced lung metastasis model; type: in vivo, mouse; conditions: 10 mg/Kg i.p., day 30, vs isotype control
Description: On the day of tumor implantation, 4T1 cells were collected, washed and resuspended in PBS. Mice were anesthetized by inhalation anesthetic (3 to 5% Isoflurane in medical grade air). 2×10^5 cells in 0.1 mL PBS were subcutaneously injected into the mammary gland by using a syringe with a 25-ga needle. Mice were randomly assigned into two groups (n=10). […] The tumor volumes and body weights were monitored twice per week. On day 30, the mice were humanely sacrificed and lung tissues were inflated with 30% sucrose, removed and fixed in Bouin's solution (Sigma-Aldrich). […] Results were expressed as mean±SEM.

[2] = system: mouse macrophage cell line RAW264.7; test: IHC and flow cytometry staining of RAW mouse macrophages; type: cell-based
Description: The expression of Gal3 on mouse macrophages was detected by both IHC and Flow cytometry analysis. In the details of IHC, 100,000 cells per well were seeded overnight. On the second day, cells were washed once with PBS, fixed with 3% formaldehyde at room temperature for 10 min, then washed twice with PBS and blocked in PBS containing 10% FBS and […] for 1 h at room temperature. After blocking, cells were incubated with 10 μg/mL of 1st antibody mIgG-biotin (BioLegend) or IMT001-biotin at 4° C. overnight, washed three times with PBST, stained with avidin-HRP (1:1000) at room temperature for 1 h and then washed three times again with PBST. The staining was developed using peroxidase substrate and counterstained with Hematoxylin QS (Vector Laboratories).
In the experiment of flow cytometry, 100,000 RAW cells were blocked with 10% FBS plus 200 μg/mL hIgG on ice for 20 min, and then incubated with 100 μl 10% FBS HBSS solution that contains control mIgG (BD Biosciences) or IMT001 at 10 μg/ml on ice for 20 minutes. Then cells were washed and incubated with APC conjugated anti-mFc antibodies (Jackson ImmunoResearch) at 1:100 on ice for 20 min. After spinning, live/dead cells were stained with Violet dead cell stain kit (Life Technologies). Stained cells were subjected to flow analysis.

[3] = system: RAW macrophages/DO11.10 T cell mixed reaction; test: Mixed Lymphocyte Reaction, RAW macrophages/DO11.10 T cells, IL-2; type: cell-based, mouse; conditions: 10 μg/ml, overnight, vs mIgG
Description: RAW mouse macrophage cells were mixed with […] mouse T cells at 1:1 ratio, treated with OVA peptide, and cultured in the presence of mIgG (BD Biosciences), anti mPD1 antibody 29F (BioXCell) or IMT001 at 10 μg/ml for overnight 37° C. 50 μl of the culture medium was taken for mIL-2 measurement. The mIL-2 production was measured according to the commercial kit mouse IL-2 Elisa Ready-SET-Go from eBioscience.

B1: IMT001: anti-Gal3 monoclonal antibody (Immutics); printed as mIMT001 (IMT001), murine (antibody, V domains shown)
VH: QIQLVQSGPELKKPGETVKISCKASGYTFTNYGMNWVKQAPGKGLKWMGWINTNTGEPTYVEEFKGRFAFSLETSASTAYLQINNLKNEDTATYFCAPYDNFFAYWGQGTLVTVSA
VL: DIVITQDELSNPVTSGESVSISCRSSKSLLYKDGKTYLNWFLQRPGQSPQLLIYLMSTHASGVSDRFSGSGSGTDFTLEISRVKAEDVGVYYCQQLVDYPLTFGAGTKLELK
lung metastatic number [1]: significant reduction of lung metastatic number | IHC detection of Gal3 on macrophages ([2]; 10 μg/mL, vs mIgG control): clearly detected Gal3 expression on macrophages | MFI of stained RAW cells vs isotype control ([2]; 10 μg/ml, flow cytometry): more than 10 folds | production of IL-2 [3]: enhanced the production of IL-2
